This is an account of results in article PMC6024076, “mRNA Deadenylation Is Coupled to Translation Rates by the Differential Activities of Ccr4-Not Nucleases”.

Series [1] has as its target GST-Pab1 (S. pombe poly(A)-binding protein Pab1) (S. pombe) (UniProt P31209).
Series [2] has as its target T1, Pab1 (Schizosaccharomyces pombe, UniProt P31209 80-653).
T1 sequence: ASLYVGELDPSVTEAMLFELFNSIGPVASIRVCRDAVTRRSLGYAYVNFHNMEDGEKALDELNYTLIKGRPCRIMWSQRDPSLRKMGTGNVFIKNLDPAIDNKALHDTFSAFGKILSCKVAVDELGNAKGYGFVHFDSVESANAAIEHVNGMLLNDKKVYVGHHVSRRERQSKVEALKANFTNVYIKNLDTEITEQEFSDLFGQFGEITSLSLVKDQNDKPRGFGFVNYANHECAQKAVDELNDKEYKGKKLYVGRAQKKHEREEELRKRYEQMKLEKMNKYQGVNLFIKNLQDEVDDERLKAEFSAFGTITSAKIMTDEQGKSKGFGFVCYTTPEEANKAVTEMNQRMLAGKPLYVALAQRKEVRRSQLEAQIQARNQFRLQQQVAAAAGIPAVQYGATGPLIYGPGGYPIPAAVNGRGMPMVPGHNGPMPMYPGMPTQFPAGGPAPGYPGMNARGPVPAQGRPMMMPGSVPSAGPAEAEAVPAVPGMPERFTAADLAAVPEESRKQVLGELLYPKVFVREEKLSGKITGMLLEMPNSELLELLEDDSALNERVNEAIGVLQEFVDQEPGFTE
Description: fluorescence polarization; FP: 20 mM HEPES pH 7.4, 150 mM NaCl, 22 C, 2 h, 0.2 nM RNA; switchSENSE: same buffer + 0.001% Tween-20, 25 nM Pab1, 20 C; EMSA: 20 mM PIPES pH 6.8, 10 mM KCl, 90 mM NaCl, 2 mM Mg(OAc)2, 0.1 mM TCEP, 22 C, 200 nM RNA. Conditions: protein: recombinant; tags: N-terminal GST cleaved with 3C protease; label: 5' 6-FAM. (Polarisation of emitted light reports the rotation of a fluorescent probe.)

In series [3] the target is T1, Pab1. Description: fluorescence polarization; one-site quadratic fit; printed label order scrambled, assigned by koff/kon; FP: 20 mM HEPES pH 7.4, 150 mM NaCl, 22 C, 2 h, 0.2 nM RNA; switchSENSE: same buffer + 0.001% Tween-20, 25 nM Pab1, 20 C; EMSA: 20 mM PIPES pH 6.8, 10 mM KCl, 90 mM NaCl, 2 mM Mg(OAc)2, 0.1 mM TCEP, 22 C, 200 nM RNA. The settings on record: protein: recombinant; tags: N-terminal GST cleaved with 3C protease; label: 5' 6-FAM.

In series [1], “S. pombe Ccr4-Not complex (WT), seven core subunits (from UniProt O74874 1-690; O74856 1-335; P87112 1-2100; P87240 1-306; O13870 1-640; Q92368 1-283)” came in with an average rate of deadenylation of 20-mer-A60 RNA by purified Ccr4-Not with Pab1 (two molecules per RNA; GST cleaved) against without Pab1 of 3 fold. Usually Kd stands for the constant that tells how readily two partners part at equilibrium. Consider AAAAAAAAAAAAAAAAAAAAAA (ssRNA) [A22], for which the Kd in the series with Pab1 [2] was around 0.5 nM. Take AAAAAAAAAAAA (ssRNA) [A12]: the Kd with Pab1 [2] is around 27 nM. Consider AAAAAAAAAAAAAAAAAAAAAAAAAAAAAA (ssRNA) [A30], for which the Kd with Pab1 [3] worked out at 0.25 ± 0.03 nM.
